Test results reported in the supplement of paper PMC12855868.

B1: library; numbered along this chain (parent)
chain: MAAAGGARLLRAASAVLGGPAGRWLHHAGSRAGSSGLLRNRGPGGSAEASRSLSVSARARSSSEDKITVHFINRDGETLTTKGKVGDSLLDVVVENNLDIDGFGACEGTLACSTCHLIFEDHIYEKLDAITDEENDMLDLAYGLTDRSRLGCQICLTKSMDNMTVRVPETVADARQSIDVGKTS

Variants of: B1
Assay: scaled log2 fold change in cell abundance, elesclomol vs control (0 = silent mean, 1 = nonsense mean) (scaled log2 ratio); higher = higher viability under elesclomol (loss of FDX1 cuproptosis function)
Conditions: with ABC1 FDX1 KO; elesclomol 5 nM; glucose 10 mM; 14 days
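Also: variant abundance is its share of total variant reads in each endpoint sample, from next-generation sequencing of the integrated ORF PCR-amplified out of genomic DNA.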

Row | Variant | scaled log2 fold change
1 | K182R | -0.345
2 | K182P | 0.201
3 | K182Q | 0.399
4 | K182V | -0.251
5 | K182Y | 0.0751
6 | K182W | 0.0276
7 | K182S | 0.0077
8 | K182T | 0.134
9 | T183H | -0.16
10 | T183K | -0.157
11 | T183I | 0.0224
12 | T183Y | -0.296
13 | T183F | 0.0658
14 | T183D | 0.0532
15 | T183N | -0.0614
16 | T183C | 0.0469
17 | T183Q | -0.0766
18 | T183S | 0.172
19 | T183E | -1.02
20 | T183M | -0.197
21 | T183R | 0.102
22 | T183L | -0.0402
23 | T183W | -0.19

Row | Variant | scaled log2 fold change
24 | T183P | 0.166
25 | T183A | -0.44
26 | T183V | 0.00691
27 | T183G | 0.353
28 | S184R | 0.0521
29 | S184H | 0.0751
30 | S184T | -0.0663
31 | S184Y | -0.125
32 | S184C | 0.145
33 | S184G | 0.207
34 | S184V | 0.362
35 | S184L | -0.241
36 | S184N | 0.136
37 | S184E | -0.0286
38 | S184W | 0.0507
39 | S184M | 0.00413
40 | S184P | 0.326
41 | S184Q | -0.0164
42 | S184A | 0.168
43 | S184F | 0.3
44 | S184K | -0.0652
45 | S184I | 0.126
46 | S184D | -0.159

Same assay, conditions: with HEK293T FDX1 KO; elesclomol 40 nM; glucose 10 mM; 11 days

Row | Variant | scaled log2 fold change
47 | K182R | 0.0141
48 | K182Q | -0.145
49 | K182V | 0.182
50 | K182Y | -0.398
51 | K182W | 0.909
52 | K182S | -0.584
53 | K182T | -0.0291
54 | D173I | 0.102
55 | H26V | 0.418
56 | H26I | 0.477
57 | S14N | 0.029
58 | R51I | 0.315
59 | E107S | -0.279
60 | A57P | -0.118
61 | D75G | 0.0557
62 | D75P | -0.0681
63 | W24Y | 0.0942
64 | W24S | -0.637
65 | W24D | -0.665
66 | S88P | -0.895
67 | S88H | -0.0956
68 | S88M | 0.379
69 | S88D | 0.11
70 | S88K | -0.315
71 | L9A | 0.241
72 | G76W | -0.575

Row | Variant | scaled log2 fold change
73 | A21W | 0.402
74 | G29L | 0.376
75 | G29Q | 0.00954
76 | G29N | 1.01
77 | G29H | -0.53
78 | R60D | 0.0454
79 | T183H | -0.49
80 | T183K | -0.436
81 | T183I | -0.426
82 | T183Y | 0.0186
83 | T183F | -0.199
84 | T183D | -0.222
85 | T183C | -0.686
86 | T183S | -0.869
87 | T183E | -0.187
88 | T183M | -0.119
89 | T183R | -0.367
90 | T183L | -0.253
91 | T183W | 0.214
92 | T183A | -0.711
93 | T183V | -0.191
94 | T183G | -1.07
95 | A129N | 0.865
96 | L37N | -0.668
97 | L37I | 1.2
98 | L37A | 0.765

Row | Variant | scaled log2 fold change
99 | S61H | 1.68
100 | S61T | 0.136
101 | S61L | 0.17
102 | S61A | 0.782
103 | E125I | -0.618
104 | A4P | -0.59
105 | L89I | -0.0352
106 | N40G | -0.0433
107 | N40A | 1.14
108 | N40H | -0.707
109 | G22S | 1.21
110 | G22D | 0.368
111 | P168G | -0.0258
112 | S184R | -0.427
113 | S184H | -0.0277
114 | S184T | -0.512
115 | S184Y | 0.879
116 | S184G | -0.25
117 | S184V | 0.648
118 | S184L | 0.57
119 | S184N | 0.0759
120 | S184E | 1.03
121 | S184W | 0.713
122 | S184M | 0.661
123 | S184P | 0.83
124 | S184Q | -0.0365

Row | Variant | scaled log2 fold change
125 | S184A | 0.908
126 | S184F | -0.432
127 | S184K | 0.0933
128 | S184I | -0.259
129 | S184D | 0.845
130 | T78F | -0.765
131 | T78A | -1.2
132 | S30P | -0.513
133 | S30W | -0.103
134 | P20V | 0.328
135 | P20R | 0.465
136 | R31L | -0.385
137 | R31D | 0.39
138 | S62V | -0.946
139 | S62P | 0.152
140 | V171G | 0.349
141 | V16H | 0.416
142 | L127C | 0.0207
143 | L25F | 0.845
144 | T157W | -0.456
145 | A15R | -0.519
146 | S50F | -0.396
147 | S50V | -0.0587
148 | V55A | -0.0113
149 | G33D | 0.213
